Measured values: article PMC10484735

B1: Bacteriophage T4 gene 32 protein (gp32), full-length (natural protein)
chain: MFKRKSTAELAAQMAKLNGNKGFSSEDKGEWKLKLDNAGNGQAVIRFLPSKNDEQAPFAILVNHGFKKNGKWYIETCSSTHGDYDSCPVCQYISKNDLYNTDNKEYSLVKRKTSYWANILVVKDPAAPENEGKVFKYRFGKKIWDKINAMIAVDVEMGETPVDVTCPWEGANFVLKVKQVSGFSNYDESKFLNQSAIPNIDDESFQKELFEQMVDLSEMTSKDKFKSFEELNTKFGQVMGTAVMGGAAATAAKKADKVADDLDAFNVDDFNTKTEDDFMSSSSGSSSSADDTDLDDLLNDL

What was measured:
[1] = system: gp32 (WT) (bacteriophage T4); experiment: optical tweezers (koff/kon); conditions: 15 pN tension; kon 0.003 nM-1 s-1; cooperative binding to bare ssDNA; Optical tweezers buffer, pH and temperature not in the material (lower salt than AFM; 15 pN for Kd); AFM: 150 mM Na+, 100 uM spermidine, 37 C, 5 min
[2] = system: *II (gp32 N-terminal truncate) (bacteriophage T4); experiment: optical tweezers (koff/kon); conditions: 15 pN tension; kon 0.0024 nM-1 s-1, koff 0.11 s-1; Optical tweezers buffer, pH and temperature not in the material (lower salt than AFM; 15 pN for Kd); AFM: 150 mM Na+, 100 uM spermidine, 37 C, 5 min
[3] = target: Bacteriophage T4 gene 32 protein (gp32), full-length (bacteriophage T4) (UniProt P03695)
[4] = target: Bacteriophage T4 gene 32 protein (gp32), full-length (bacteriophage T4) (UniProt P03695); remark: listed apart in the source
[5] = target: Bacteriophage T4 gene 32 protein (gp32), full-length (bacteriophage T4) (UniProt P03695); remark: listed apart in the source

Molecule	Kd [1] [nM]	Kd [2] [nM]	rate of ssDNA compaction after bimolecular binding (kc, two-step fit of k+1 against gp32 concentration at 15 pN, optical tweezers) [3] [s^−1]	maximal compaction of 8.1 knt ssDNA at 15 pN (optical tweezers, constant force), WT gp32 against the noncooperative truncate *II that lacks the N-terminal domain [4] [fold]	persistence length of the gp32–ssDNA complex (WLC fit of force-extension curves up to 5 pN, optical tweezers; plateau at gp32 ≥25 nM, up to 1 μM) [5] [nm]
8.1 knt ssDNA (optical tweezers)	1	46			
B1			1.5	4	20
